Assay results as given in the supplement of paper PMC9732359.
± gives the uncertainty stated by the source.

Assay: protein stability index of a GFP-peptide fusion (yeast GPS) (PSI 1-4); higher = more stable; sorted into four equal gates, so the index is relative within each strain
How it was run: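 Sequencing reads from sorted gates were used to score each peptide. The library consisted of tiled 17-residue yeast protein peptides fused downstream of GFP on a Cherry-expressing plasmid, pooled and carried in yeast. Mid-log cultures in leucine-free medium were split into four equal gates by GFP/Cherry ratio, and each gate's plasmids were PCR-amplified and Illumina-sequenced. The protein stability index adds up, over all gates, the read frequency multiplied by the gate number.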

Sequence | protein stability index (doa10∆) | protein stability index (pdr5∆) | protein stability index (san1∆) | protein stability index (ubr1∆)
MDCTKEEEATMTTSAVS [YIL149C/MLP2] | 3.35 ± 0.08 | 3.24 ± 0.065 | 3.28 ± 0.06 | 3.12 ± 0.059
SSKLQLTKKYSFKIFVD [RRP42] | 2.19 ± 0.09 | 1.76 ± 0.062 | 1.76 ± 0.086 | 2.06 ± 0.044
AHKGQIVLIKGISSAYI [SNU114] | 1.56 ± 0.07 | 1.48 ± 0.064 | 1.89 ± 0.069 | 1.86 ± 0.053
EEALNFDISMADLSSSE [SSN2] | 2.85 ± 0.06 | 2.95 ± 0.053 | 3.05 ± 0.07 | 2.6 ± 0.049
VLRPFLLRRLKKDVEKE [SNF2] | 2.8 ± 0.13 | 3.16 ± 0.19 |  | 3.11 ± 0.12
KVNSRDDSFFNETNDKK [PRP28] | 2.82 ± 0.12 | 3.1 ± 0.11 | 3.04 ± 0.13 | 2.94 ± 0.12
TEISPMAGSQFENGNIT [RRP45] | 2.6 ± 0.063 | 2.5 ± 0.05 | 2.86 ± 0.058 | 2.71 ± 0.062
NNPPKPQKPVPLNVLQD [SNF2] | 3.04 ± 0.049 | 3.38 ± 0.06 | 3.21 ± 0.045 | 3.052 ± 0.028
KMMSFQANPTEESISKF [RPB5] | 3.02 ± 0.077 | 3.17 ± 0.076 | 2.4 ± 0.2 | 3.15 ± 0.12
HLVELLLVFRNADLDLD [YDL116W/NUP84] | 3.17 ± 0.12 | 2.46 ± 0.098 | 2.17 ± 0.099 | 2.5 ± 0.13
VIKTLTVDVSSPTENGV [RPL22B] | 2.3 ± 0.14 | 2.55 ± 0.089 | 2.32 ± 0.13 | 2.83 ± 0.064
LVHSEYLINGKRFKRKD [SRP68] | 2.68 ± 0.16 | 2.79 ± 0.065 | 2.84 ± 0.076 | 2.67 ± 0.038
KRANNIRKFFGLSKEDD [RPS6A] | 3.39 ± 0.17 | 3.22 ± 0.11 | 2.98 ± 0.15 | 3.56 ± 0.11
QKSGRPVKSIRARLKGK [RPO21] | 2.17 ± 0.12 | 2.23 ± 0.12 | 2.34 ± 0.2 | 1.77 ± 0.24
FEPSISRSNFQGKHTKF [LRP1] | 3.2 ± 0.1 | 3.26 ± 0.15 | 2.97 ± 0.14 | 3.28 ± 0.094
AQAFVELENSSPELKAE [RPS7A] | 3.08 ± 0.23 |  |  | 
SSKNETSKPVFSFGAAT [YLR335W/NUP2] | 3.12 ± 0.071 | 3.08 ± 0.07 | 2.88 ± 0.063 | 3.06 ± 0.038
YNYCVNKSRSSGHFSTD [CDC53] | 2.8 ± 0.056 | 2.54 ± 0.046 | 2.23 ± 0.049 | 2.54 ± 0.036
ISTVIEVNREEAIGFIR [SMC3] | 2.93 ± 0.21 | 2.65 ± 0.11 | 2.86 ± 0.16 | 2.57 ± 0.088
DIICEDSTLILEQLAQH [RPB2] | 2.24 ± 0.047 | 2.56 ± 0.057 | 2.57 ± 0.084 | 2.35 ± 0.051
LFEVNPSQTLFSISYKP [SRP21] | 2.57 ± 0.071 | 2.84 ± 0.077 | 2.28 ± 0.091 | 2.64 ± 0.045
KPLTENCKKKKKRKKKN [RMP1] | 2.97 ± 0.19 | 1.89 ± 0.28 | 1.5 ± 0.14 | 3.38 ± 0.19

Sequence | protein stability index (doa10∆) | protein stability index (pdr5∆) | protein stability index (san1∆) | protein stability index (ubr1∆)
LRYVKQIEGPFLIIVPK [ISW2] | 2.15 ± 0.081 | 2.3 ± 0.059 | 2.29 ± 0.065 | 2.34 ± 0.045
LKIFQEQSLEVFIFPTS [SRB8] | 2.12 ± 0.083 | 1.96 ± 0.054 | 2.29 ± 0.056 | 2.28 ± 0.041
EAFGNIKIDAKPALFER [MCD1] | 2.11 ± 0.083 | 2.89 ± 0.15 | 1.84 ± 0.21 | 2.58 ± 0.078
NREAATKEVESNIITKS [DIS3] | 2.79 ± 0.11 | 2.94 ± 0.064 | 2.79 ± 0.074 | 2.87 ± 0.089
TDDQGRVIDDNNRRRSR [SIR3] | 3.66 ± 0.12 | 3.05 ± 0.24 | 3.39 ± 0.17 | 
TIVQLCKKKEMSQYQST [YIL149C/MLP2] | 1.88 ± 0.063 | 2.14 ± 0.061 | 1.76 ± 0.091 | 1.8 ± 0.052
LVQLSTMETKTLPEKKQ [SIR4] | 2.88 ± 0.063 | 2.9 ± 0.069 | 2.72 ± 0.052 | 2.99 ± 0.059
EDPDQEECSGRRWNKLC [YGL100W/SEH1] | 2.24 ± 0.07 | 2.16 ± 0.083 | 1.88 ± 0.1 | 2.27 ± 0.057
QYNIPPEREVLVRELYQ [RRP6] | 2.52 ± 0.061 | 2.15 ± 0.089 | 2.37 ± 0.14 | 2.17 ± 0.083
EDLVDRIENPEKYAAAA [RPP0] | 3.05 ± 0.078 | 3.28 ± 0.099 | 2.93 ± 0.054 | 3.09 ± 0.057
FWFDKLVTKILPLKKNE [YCG1] | 2.83 ± 0.21 | 3 ± 0.14 | 3.1 ± 0.15 | 2.43 ± 0.24
MLKRFFPGVKGLVHDLC [SMC1] |  |  | 1.95 ± 0.14 | 2.42 ± 0.17
REFLKVDQEMLYEIILA [SKP1] | 2.81 ± 0.066 | 2.85 ± 0.065 | 2.86 ± 0.096 | 2.96 ± 0.051
LQGVTYPVLRKLYKKIA [YIL149C/MLP2] | 1.94 ± 0.093 | 1.79 ± 0.056 | 1.55 ± 0.14 | 1.83 ± 0.055
KAGVKESDTGLAPSHLW [RPT1] | 2.93 ± 0.16 |  | 3.09 ± 0.12 | 
QCNYSSLVFNRKLAVER [PRE5] | 2.23 ± 0.2 | 1.5 ± 0.18 | 1.46 ± 0.19 | 1.67 ± 0.2
LNKAGKPFRQTKFKVRG [RPL38] | 2.78 ± 0.12 | 3.33 ± 0.069 | 3.19 ± 0.11 | 3.04 ± 0.081
EREQCRAGGAAASLIMP [PRE7] | 3.02 ± 0.24 | 2.92 ± 0.19 | 3.43 ± 0.18 | 2.89 ± 0.1
HVRCGTAFALGIACAGK [RPN2] | 1.27 ± 0.081 | 1.58 ± 0.13 | 1.46 ± 0.23 | 1.53 ± 0.076
LGMLDDNKMDSVKEDVK [SMC4] | 2.12 ± 0.15 | 2.61 ± 0.13 | 2.09 ± 0.24 | 
KVKNFGVWVRYDSRSGT [RPL20A] |  | 2.74 ± 0.1 |  | 2.55 ± 0.24
